Results taken from patent US20140294819A1 (NVIP, published 2014).
Blank lines part the entries; values can stand above or below the molecule they belong to.

Columns and labels:
[1] = molecular target: canine CD20 cyclic (oxidised, disulphide-bonded) peptide SEQ ID NO:2 (canine); experiment: ELISA, biotinylated oxidised peptide on streptavidin plate; conditions: scale: fold of the binding to human CD20 peptide
[2] = molecular target: T1, murine CD20 cyclic (oxidised) peptide SEQ ID NO:6 (murine, disulphide bond between the two cysteine residues; biotinylated); experiment: ELISA on cyclised CD20 peptide
T1 construct: also called M20; mouse CD20 peptide
T1 peptide: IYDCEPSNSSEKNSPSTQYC

[3] = molecular target: T2, feline CD20 cyclised peptide SEQ ID NO:4 (feline, cyclised by a disulphide bond between the two cysteine residues); experiment: ELISA on cyclised CD20 peptide
T2 construct: also called feline CD20 peptide
T2 peptide: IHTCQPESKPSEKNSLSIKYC

[4] = molecular target: T3, human CD20 cyclic (oxidised) peptide SEQ ID NO:3 (human, disulphide bond between the two cysteine residues; biotinylated); experiment: ELISA on cyclised CD20 peptide
T3 construct: also called H20; human CD20 cyclic peptide
T3 peptide: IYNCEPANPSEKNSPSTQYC

[5] = molecular target: T4, canine CD20 cyclic (oxidised, disulphide-bonded) peptide SEQ ID NO:2 (canine, disulphide bond between the two cysteine residues (corresponding to positions 167 and 183); N-terminal biotin in the streptavidin-plate assays); experiment: ELISA on cyclised CD20 peptide
T4 construct: Chemically synthesised and oxidised; also called C20; caCD20 peptide
T4 peptide: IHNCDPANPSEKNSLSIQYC

[6] = molecular target: T4, canine CD20 cyclic (oxidised, …); experiment: ELISA, CHO supernatant on canine CD20 cyclic peptide, dose response
From the text: This confirms the data with Bly-1 above (and by extension its humanised variant GA101) that this is a further example of a Type II anti-human CD20 monoclonal antibody that also binds to a common epitope on canine CD20, thus validating the use of the structurally constrained shared epitope on canine CD20 as a novel target for monoclonal antibodies.

binding relative to the binding to human CD20 peptide [1]: 0.167
Molecule: B1-H299 (Beckmann Coulter) murine Type II anti-human CD20 monoclonal antibody

binding result [2]: binds | binding result [3]: binds | binding result [4]: binds | binding result [5]: binds
B1: caninised RF2, HCC isotype (antibody)
heavy: EVQLVQSGGGLVKPTESLTISCVISGFSLTSYGVHWVRQSPGKGLEWLGVIWSGGSIDYNAAFISRLSISKDNSKSTVFIRMNSLRADDTAIYYCARGPRKFYYFGMDYWGQGTSVTVSSASTTAPSVFPLAPSCGSQSGSTVALACLVSGYIPEPVTVSWNSVSLTSGVHTFPSVLQSSGLYSLSSMVTVPSSRWPSETFTCNVAHPATNTKVDKPVAKECECKCNCNNCPCPGCGLLGGPSVFIFPPKPKDILVTARTPTVTCVVVDLDPENPEVQISWFVDSKQVQTANTQPREEQSNGTYRVVSVLPIGHQDWLSGKQFKCKVNNKALPSPIEEIISKTPGQAHQPNVYVLPPSRDEMSKNTVTLTCLVKDFFPPEIDVEWQSNGQQEPESKYRMTPPQLDEDGSYFLYSKLSVDKSRWQRGDTFICAVMHEALHNHYTQISLSHSPGK
light: DIVMTQTPLSLSVSQEEEASISCRSSQNIVHSNGNTYVEWYLQKPGQSPKLLIYKVSNRFSGVPDRFSGSGSGTDFTLKISRVEAEDAGVYYCFQGSHVPLTFGAGTKLELKRNDAQPAVYLFQPSPDQLHTGSASVVCLLNSFYPKDINVKWKVDGVIQDTGIQESVTEQDKDSTYSLSSTLTMSSTEYLSHELYSCEITHKSLPSTLIKSFQRSECQRVD
notes: also called caRF2-C

binding result [6]: binds
B2: recombinant caninised GA101 (full length canine antibody) (antibody, V domains shown)
VH: EVQLVQSGGEVVKPGGSLKVSCVASGYAFSYSWINWVRQAPGQGMEWVGRIFPGDGDTDYNGKFKGRVTITRDNSKSTAYLELSSLRSEDTAVYYCARNVFDGYWLVYWGQGTLVTVSS
VL: DIVMTQTPLSLSVTPEEPASISCRSSKSLLHSNGITYLYWYLQKPGQSPQLLIYQMSNLVSGVPDRFSGSGSGTDFTLKISRVEAEDVGVYYCAQNLELPYTFGAGTKVEIKR
notes: Tested as CHO cell supernatant
